Assay results as given in US20080300206.

System: recombinant wild-type human alpha-synuclein

Substance | S87 phosphorylation, immunoblot (ELADW-110) | S129 phosphorylation in vitro, normalised by activity units | S129 phosphorylation, immunoblot (11A5), kinase:AS 1:200 molar | S129 phosphorylation, immunoblot (11A5), rank of signal | phospho ser-129 level in vitro, normalised for molarity
casein kinase I (CKI) | A signal was detected only with CKI phosphorylation | CKI gave a modest signal | Prominent signals came from GRK6, CKI, CKII and PLK2 | CKI>GRK6>PLK2>GRK4>GRK5>GRK2 | roughly equivalent levels of phospho ser-129 between CKI, GRK6 and PLK2
casein kinase II (CKII) | – | CKII was not detectable | Prominent signals came from GRK6, CKI, CKII and PLK2 | – | –
